Experimental findings from US20070141048A1 (SYMPHOGEN A S, published 2007) are described below.

T1: Ovalbumin (UniProt P01012 2-386)
T1 sequence: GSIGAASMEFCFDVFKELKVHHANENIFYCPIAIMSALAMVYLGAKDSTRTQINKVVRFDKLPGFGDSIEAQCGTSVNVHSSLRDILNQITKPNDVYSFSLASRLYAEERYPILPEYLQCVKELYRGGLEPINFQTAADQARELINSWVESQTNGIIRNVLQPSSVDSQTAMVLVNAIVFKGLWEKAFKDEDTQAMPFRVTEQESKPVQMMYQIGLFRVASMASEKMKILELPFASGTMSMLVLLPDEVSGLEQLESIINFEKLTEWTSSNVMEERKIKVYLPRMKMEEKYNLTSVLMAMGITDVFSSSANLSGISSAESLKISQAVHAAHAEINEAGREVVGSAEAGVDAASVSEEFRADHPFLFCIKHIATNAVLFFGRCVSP

B1: g060b10 (Fab, V domains shown)
VH: KVQLVESGAEVKKPGATVRVSCKASGYRFNDYCISWVRQAPGQGLEWMGWINGNNADTFYAPKLQGRVTMSTDTSTSTAYMELRNLRSDDTAVYFCARDRGRITLFGEVILRAGWFDSWGQGTLVTVS
VL: EIVMTQSPSSLSASVGDRVTITCQASQDISKYLNWYQQKPGRAPKLLIYEASNLETGVPPRFSGSGSGTHFTFTITGLQPEDIATYYCQQCDSLPPVFGQGTKLEVK
B2: g060h11 (Fab, V domains shown)
VH: QVTLKESGPTVVKPTQTLTLTCSLSGFALGTTGVAVGWIRQPPGKALEWLGLIDWNDDRRYRPSLKTRLTITQDMSRNQVVLRLTNLDPLDTGTYFCARSVVPATRAFDFWGQGTLVTVS
VL: DIQMTQSSSTLSASVGDRVTITCRASQNINIWLAWYQQKAGKAPKLLIYKASTLERGVPSRFSGSGSGTEFTLTITGLRPDDFGSYYCQHYDGNSLTFGQGTRVDIQ
B3: g060c04 (Fab, V domains shown)
VH: QMQLVQSGAEVKKPGSSVKVSCQSSGGPPKSYTLSWVRQAPGQGPEWMGGIILIFGPPNYAQKFQDRLTITADKSTNTVYMELSSLRSDDTAMYYCVTAPDDTGTILARHNRYYFDSWGQGTLVTVS
VL: EIVLTQSPGTLSLSPGQRATLSCRASQSVNRDYLAWYQQKPGQAPRLLIYGASSRATGIPDRFSGSGSGTDFTLTISRLERDDFAVYFCHQYGSSPNTFGQGTKLEIK
B4: g060b06 (Fab, V domains shown)
VH: QVQLQESGGGVVQPGTSLRLSCVVSGFTFRTYGMNWVRQAPGKVLEWLAFVSSDGSDEFYADSVKGRFTVSRDNSKSTLFLKMNSLRADDTAVYYCARDRGAQITLFGAPLIRPSSFDSWGQGTLVTVS
VL: EIVLTQSPSSLSASVGDRITITCQASQDITNYLNWYQQKPGKAPKLLIYDASNLQPGVPSRFSGSRSGTDFTFTISSLRPEDIATYYCQQYDGPVLTFGGGTKVEIK
B5: g060a04 (Fab, V domains shown)
VH: B4 VH with Q1K, Q5V, V44G, V51L, A88P
VL: B4 VL with E1D, I2V, L4M, I19V, R66G, G68V
B6: g060f02 (Fab, V domains shown)
VH: KVQLVQSGAEVKKPGTSVRVSCKTSGGYVFSWVRQAPGHGPEWMGGIITNFGTATYAQKFQGRVSITADTSTNTFYMDLNNLKSDDTAVYYCASAPRDTSTIAARFNRYFFDFWGPGTLVTVS
VL: DVVMTQSPGTLSLSPGERATLSCRASQSVNSNNLAWYQQKPGQAPRLLVSGATNRATDIPDRFSGSGSGTDFTLTISRLEPEDFAVYYCHQYGSSENTFGQGTKLEIR
B7: g060c03 (Fab, V domains shown)
VH: KVQLVESGGGLVKPGGSLRLSCAASGSSFSNNNMNWVRQTPGKGLEWVASISFGSHYISYADSVKGRFTISRDNARNAVYLQMNSLRVEDTAVYYCTRCRGGTRTYYYMDVWGKGTLVTVS
VL: EIVMTQSPGTLALSPGDRATLSCGASQSVFGDFLAWYQHKPGQAPRLLIYGASTRATGIPDRFSGSGAGTDFTLTISRLEPEDFAVYFCQQYGDSVFTFGQGTKLEIK
B8: g060d08 (Fab, V domains shown)
VH: B7 VH with S27F, L117M
VL: B7 VL with E1D, I2V, G51V, K108R
B9: g060f06 (Fab, V domains shown)
VH: B7 VH with K1Q, V5Q, E6Q, S27F
VL: B7 VL with L47P
B10: g060b12 (Fab, V domains shown)
VH: B7 VH with K1Q, E6Q, S27F
VL: B7 VL with M4L, E106G
B11: g060g07 (Fab, V domains shown)
VH: QVQLQQSGPGLVKPSETLPLTCTVSGGSFSTYYWSWIRQSPEKGLEWIGYIQNSVNTNYNPSLKSRVIISVDTSNNQFSLKLRSVTAADTAVYYCARVSGWGPRGGIYFDYWGQGTLVTVS
VL: DIQMTQSPSSLSASVSDRVTITCRASQSINKFLNWYQQKPGKAPQLLIYAATNLQSGVPSRFSGSGSGTDFTLTISSLQTEDFATYYCQQSYDMPRTFGQGTKVEIK

Residue numbers refer to the chain shown, from its start.

The experiment has as its target T1, Ovalbumin. Put plainly: ELISA, periplasmic extract on coated Ovalbumin. (In an ELISA, binding on a coated surface is turned into a signal by an enzyme label.)
Turning to B1, the binding result is listed as “no binding (tested: 10 µg/ml Ovalbumin coat)”.
For B2 the value was “no binding (tested: 10 µg/ml Ovalbumin coat)”; for B3, “no binding (tested: 10 µg/ml Ovalbumin coat)”.
Under B4 stands “no binding (tested: 10 µg/ml Ovalbumin coat)”; under B5, “no binding (tested: 10 µg/ml Ovalbumin coat)”.
Under B6 stands “no binding (tested: 10 µg/ml Ovalbumin coat)”; under B7, “no binding (tested: 10 µg/ml Ovalbumin coat)”.
As for B8, the binding result was “no binding (tested: 10 µg/ml Ovalbumin coat)”.
In the case of B9, the binding result is listed as “no binding (tested: 10 µg/ml Ovalbumin coat)”.
Turning to B10, the binding result is “no binding (tested: 10 µg/ml Ovalbumin coat)”.
Turning to B11, the binding result is listed as “no binding (tested: 10 µg/ml Ovalbumin coat)”.
